Target: RSV prefusion F (PR-DM) (respiratory syncytial virus A, UniProt P03420)
Assay: cryo-EM structure

Binder | stoichiometry N
RSV-2245 Fab (Fab, V domains shown) VH: QVQLVQSGAEVKKPGASVKVSCKASGYSFSSFGVSWVRQAPGQGLEWLGWISAYNGNTDYAQKVQGRLTMTTDTSTNTAYMELRNLRSDDTAVYYCARDPPASAAAMFDYWGQGTLVTVSS VL: not shown | 3 Fab per F trimer
RSV-3301 Fab (Fab, V domains shown) VH: QVQLVESGPTLVKPTQTLTLTCSFSGFSLSTRGVGVGWVRQPPGKALECLGFTYWDGDEYYSPSLRNRVTISKDTSKNQVVLTLTNMDPVDTATYFCVHSDLYDRGGYYLYYFDYWGQGTLVTVSS VL: DIRVTQSPSSLSASVGDRVTITCRASQTIASYVNWYQQKPGRAPELLIYAASILQSGVPSRFSGRGSGTDFTLTINGLQPEDFATYYCQQSYSSPWTFGQGTKVEIK | 3 Fab per F trimer

— paper PMC11870394 (bioRxiv, 2025)
